The text below walks through data of patent US20240218079A1, “PLASMA KALLIKREIN ANTIBODIES AND USES THEREOF” (Astria Therapeutics, Inc., priority 2021, published 2024).

As a reminder, the Hill slope is a measure of the steepness of the concentration-response curve.

Data set [1] has as its target T1, pkal (1 nM enzyme) (Homo sapiens, UniProt P03952).
T1 construct: active human plasma kallikrein (pkal, Enzyme Research Labs, South Bend, IN); purchased Enzyme Research Labs, South Bend, IN
The data set can be described thus: Inhibition of pkal enzymatic activity in a fluorogenic peptide substrate assay (screening). In kind it is biochemical. As to the method: (§1) Monoclonal IgGs were retested for pkal and prekal binding by ELISA, and were screened for inhibition of pkal (1 nM enzyme) enzymatic activity in a fluorogenic peptide substrate assay (Kenniston et al. J Biol Chem. 2014 Aug. 22; 289(34):23596-608). […] This hybridoma was sequenced to determine heavy and light chain variable domains (SEQ ID NO: 1 and SEQ ID NO: 2; MAb1). […] The nucleic acid sequence of the heavy chain variable domain of MAb1 is provided as SEQ ID NO: 33 and the nucleic acid sequence of the light chain variable domain of MAb1 is provided as SEQ ID NO: 34.

The test system of data set [2] is human pkal and prekal. The data set can be described thus: ELISA for binding to human pkal and prekal. The settings on record: monoclonal IgG from hybridoma. As to the method: Five prekallikrein (prekal) knock-out mice were immunized via the hock route with active human plasma kallikrein (pkal, Enzyme Research Labs, South Bend, IN). When serum titers indicated a robust immune response, draining lymph nodes were harvested, and lymphocytes were fused with a myeloma line using electrofusion. Resulting hybridomas were plated in thirty 384-well plates, and screening by ELISA for binding to human pkal and prekal. Hybridoma lines with preferential binding to pkal were subcloned and expanded.
as §1
For orientation: An ELISA detects its analyte on a solid surface through an enzyme-linked reagent.

The target of data set [3] is T2, plasma kallikrein (pkal) (Homo sapiens, UniProt P03952).
T2 construct: active human plasma kallikrein (pkal, Enzyme Research Labs, South Bend, IN); purchased Enzyme Research Labs
T2 sequence (P03952 20-390 limits assumed): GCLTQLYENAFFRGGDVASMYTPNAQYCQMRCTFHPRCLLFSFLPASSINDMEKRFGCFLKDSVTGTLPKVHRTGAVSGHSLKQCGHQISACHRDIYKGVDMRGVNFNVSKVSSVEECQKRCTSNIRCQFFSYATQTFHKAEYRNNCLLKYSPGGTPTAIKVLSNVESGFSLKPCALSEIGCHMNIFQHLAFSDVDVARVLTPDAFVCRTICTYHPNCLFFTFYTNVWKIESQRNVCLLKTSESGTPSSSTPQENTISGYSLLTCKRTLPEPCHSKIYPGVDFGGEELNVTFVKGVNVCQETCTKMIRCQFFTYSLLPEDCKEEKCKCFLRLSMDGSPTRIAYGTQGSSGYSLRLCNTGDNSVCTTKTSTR
T2 sequence (P03952 391-638 limits assumed): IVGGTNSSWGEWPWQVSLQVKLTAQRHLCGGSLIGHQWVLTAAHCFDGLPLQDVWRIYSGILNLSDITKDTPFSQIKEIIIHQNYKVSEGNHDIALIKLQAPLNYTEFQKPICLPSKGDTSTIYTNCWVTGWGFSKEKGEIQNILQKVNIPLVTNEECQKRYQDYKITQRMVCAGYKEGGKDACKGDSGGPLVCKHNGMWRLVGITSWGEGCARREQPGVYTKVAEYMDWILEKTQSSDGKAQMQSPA
The data set can be described thus: HMWK cleavage functional assay (bradykinin release measured by ELISA). The settings on record: inhibition of HMWK cleavage by pkal. The class given is biochemical. The protocol: Specifically, the ability of each antibody to inhibit pkal cleavage of its natural substrate, High Molecular Weight Kininogen (HMWK) was observed. In these experiments 10 or 30 nM pkal was preincubated with inhibitory antibodies for 1 hr at RT, then 600 nM HMWK was added and incubated for 20 minutes and the reaction was quenched by adding 0.5 μM AEBSF. The concentration of bradykinin (BK) released from HMWK as catalyzed by pKal was measured using 1/100 dilution of the reaction product in a commercial ELISA kit (Enzo, Farmingdale, NY).
The HMWK assay parameters were physiologically relevant as the concentration of high molecular weight kininogen used is the concentration that circulates in humans and the concentration of plasma kallikrein used is in the range of what has been estimated in plasma from patients with hereditary angioedema (HAE) during an attack.
The IC90 values for the antibodies were also determined to provide an index of relative potency. In HAE, the therapeutically relevant level of inhibition to prevent HAE attacks is thought to be approximately 90% inhibition of plasma kallikrein. This corresponds to a measurement referred to as IC90, which is the concentration of an agent that results in 90% inhibitory effect.

In data set [4] the target is T3, human plasma kallikrein (Homo sapiens, UniProt P03952).
T3 construct: active human plasma kallikrein (pkal, Enzyme Research Labs, South Bend, IN); purchased Enzyme Research Labs
T3 sequence (P03952 20-390 limits assumed): as the sequence (P03952 20-390 limits assumed) above
T3 sequence (P03952 391-638 limits assumed): as the sequence (P03952 391-638 limits assumed) above
The data set can be described thus: SPR binding to human plasma kallikrein. Conditions: pH 7.4, 37° C. As to the method:
Kinetic properties and selectivity of lead pkal antibodies were examined by SPR at 37° C. and either pH 7.4 or pH 6.0.

In data set [5] the target is T4, human FcRn (Homo sapiens, UniProt P55899).
T4 construct: purchased Sino Biological CT009-H08H
T4 sequence (P55899 24-297 limits assumed): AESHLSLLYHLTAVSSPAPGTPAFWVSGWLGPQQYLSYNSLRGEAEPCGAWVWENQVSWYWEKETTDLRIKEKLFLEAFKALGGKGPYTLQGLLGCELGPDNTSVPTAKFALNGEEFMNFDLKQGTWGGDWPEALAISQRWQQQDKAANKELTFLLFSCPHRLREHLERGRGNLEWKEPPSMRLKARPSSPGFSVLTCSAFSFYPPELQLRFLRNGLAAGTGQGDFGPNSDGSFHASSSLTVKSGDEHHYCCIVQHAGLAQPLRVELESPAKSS
T4 sequence (P61769 21-119 partner): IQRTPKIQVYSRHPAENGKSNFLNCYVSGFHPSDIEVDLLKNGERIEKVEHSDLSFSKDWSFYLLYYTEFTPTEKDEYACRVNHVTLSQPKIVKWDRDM
The data set can be described thus: hFcRn binding by SPR (Biacore T200). The protocol: IgG1 was used as a control antibody. The antibody samples were assessed for FcRn binding via SPR using a Biacore T200. The Biacore chip was a CMS coupled with human FcRn (Sino Biological, Cat. No. CT009-H08H). Running buffer used was PBS 0.05% P20 and pH 6 or pH 7.4.
In general terms: SPR reads the build-up and loss of mass on a sensor chip optically.

Data set [6] is described as follows: Cynomolgus pharmacokinetic studies. In kind it is in vivo, cynomolgus monkey. Conditions: male cynomolgus, IV infusion 5 mg/kg. The protocol:
These studies of these antibodies were conducted concurrently, but were independent studies rather than a head-to-head comparison. Cynomolgus monkeys, LM-naïve or naive, 3.0-4.0 kg, male, N=18, were purchased from Hainan Jingang Biotech Co. LTD. The antibodies were prepared in 20 mM Histidine, 150 mM NaCl, 0.01% Tween 80, pH 6.5. In these studies, all antibodies were administered to male cynomolgus monkeys (N=3) via IV infusion over 10 min at 5 mg/kg. Blood was collected from cephalic and saphenous veins into pre-cooled citrate acid tubes at each time point. […] Blood samples were put on wet ice and centrifuged at 4° C. to obtain plasma within 15 minutes of sample collection. Plasma samples were stored at approximately −70 C. Presence of each anti-plasma kallikrein antibody in the plasma samples was determined via ELISA using a plate coated with anti-human antibody as the capture agent and human IgG-heavy and light chain monkey-adsorbed antibody as the detection reagent (Southern Biotech, Cat #: 2049-01 and Bethyl, Cat #A80-319P). ELISA plates were read using a SpectraMax M2.

Data set [7] has as its system trypsin, human pancrease. The data set can be described thus: Trypsin inhibition assay. In kind it is biochemical. Conditions: dilution series starting at 1 μM. The protocol:
Fluorescence intensity was measured every 5 minutes. Gabexate mesylate was used as a positive control, in a dilution series starting at 1 μM. The assay was performed in duplicate.

T1 sequence (P03952 391-638 limits assumed): as the sequence (P03952 391-638 limits assumed) above
T1 sequence (P03952 20-390 limits assumed): as the sequence (P03952 20-390 limits assumed) above

B1: MAb1: murine hybridoma lineage 24L13 anti-plasma kallikrein antibody; VH SEQ ID NO: 1, VL SEQ ID NO: 2 (antibody, V domains shown)
VH: QVQLQQSGAELVKPGASVKISCKASGYAFSSYWMNWVKQRPGEGLEWIGQIYPGDDDTNYNGKFKGKATLTVDKSSTTAYMQLSSLTSEDSAVYFCAGSLMVTTGAPFDYWGQGTTLTVSS
VL: DIVMTQSHKFMSTSVGDRVSITCKASQDVGIAVAWYQQKPGQSPKFLIYWASTRHTGVPDRFTGSGSGTDFTLTIRNVQSEDLSDYFCQQYRSYPLTFGSGTKLELK
For B1, in data set [1], the “inhibition of pkal enzymatic activity (in words)” value (shortened to “inhibition … (in words)”) was “inhibitory”. Also, in data set [2], the “selectivity for pkal over prekal by ELISA” value is given as “selective for pkal”.

B2: MAb4-YTE: MAb4 with M252Y, S254T, T256E; heavy chain SEQ ID NO: 10, light chain SEQ ID NO: 8 (antibody)
heavy: QVQLVQSGAEVKKPGSSVKVSCKASGYAFSSYWMNWVRQAPGQGLEWIGQIYPGDDDTNYNAKFQGRVTITVDKSTTTAYMELSSLRSEDTAVYFCAGSLMVTTGAPFDYWGQGTTVTVSSASTKGPSVFPLAPSSKSTSGGTAALGCLVKDYFPEPVTVSWNSGALTSGVHTFPAVLQSSGLYSLSSVVTVPSSSLGTQTYICNVNHKPSNTKVDKRVEPKSCDKTHTCPPCPAPELLGGPSVFLFPPKPKDTLYITREPEVTCVVVDVSHEDPEVKFNWYVDGVEVHNAKTKPREEQYNSTYRVVSVLTVLHQDWLNGKEYKCKVSNKALPAPIEKTISKAKGQPREPQVYTLPPSREEMTKNQVSLTCLVKGFYPSDIAVEWESNGQPENNYKTTPPVLDSDGSFFLYSKLTVDKSRWQQGNVFSCSVMHEALHNHYTQKSLSLSPG
light: DIQMTQSPSSLSASVGDRVTITCKASQDVGIAVAWYQQKPGKAPKFLIYYASHRGWGVPDRFSGSGSGTDFTLTISSLQPEDFATYFCQQYRSYPLTFGQGTKLEIKRTVAAPSVFIFPPSDEQLKSGTASVVCLLNNFYPREAKVQWKVDNALQSGNSQESVTEQDSKDSTYSLSSTLTLSKADYEKHKVYACEVTHQGLSSPVTKSFNRGEC
Molecule B2 had a Hill slope in data set [3] of about 2. Also, in data set [4], the “Ka” value worked out at 69000 M⁻¹ s⁻¹ and the “Kd” value stood at 7.3e-05 s⁻¹. Further, in data set [5] (pH 6.0), the “hFcRn Binding Ka” value came to 184000 M⁻¹ s⁻¹ and the “hFcRn Binding Kd” value came to 0.0277 s⁻¹. In data set [5] (pH 7.4, data not shown), the “hFcRn binding at pH 7.4” value is “no evidence of binding”. Moreover, in data set [6], the “CI (mL/day/kg) (Mean ± SD)” value is recorded as 1.44 ± 0.33 mL/day/kg, the “T ½ (days) (Mean ± SD)” value was 33.6 ± 8.3 days, the “Vss (mL/kg) (Mean ± SD)” value is recorded as 66.8 ± 6.1 mL/kg and the “terminal half-life” value is “approximately 34 days”. Moreover, the “inhibition of trypsin activity” value in data set [7] is given as “did not inhibit trypsin activity”.

B3: MAb2: optimally humanized variant VH5_VL4; VH SEQ ID NO: 3, VL SEQ ID NO: 4 (antibody, V domains shown)
VH: QVQLVQSGAEVKKPGSSVKVSCKASGYAFSSYWMNWVRQAPGQGLEWIGQIYPGDDDTNYNGKFQGRVTITVDKSTTTAYMELSSLRSEDTAVYFCAGSLMVTTGAPFDYWGQGTTVTVSS
VL: DIQMTQSPSSLSASVGDRVTITCKASQDVGIAVAWYQQKPGKAPKFLIYWASTRHTGVPDRFSGSGSGTDFTLTISSLQPEDFATYFCQQYRSYPLTFGQGTKLEIK
Turning to B3, the “inhibition … (in words)” value in data set [1] was “maintained both binding affinity and inhibitory potency”.

B4: MAb3: humanized, liability fixed VH SEQ ID NO: 5 with CDR2-optimized VL SEQ ID NO: 6 (antibody, V domains shown)
VH: QVQLVQSGAEVKKPGSSVKVSCKASGYAFSSYWMNWVRQAPGQGLEWIGQIYPGDDDTNYNAKFQGRVTITVDKSTTTAYMELSSLRSEDTAVYFCAGSLMVTTGAPFDYWGQGTTVTVSS
VL: DIQMTQSPSSLSASVGDRVTITCKASQDVGIAVAWYQQKPGKAPKFLIYYASHRGWGVPDRFSGSGSGTDFTLTISSLQPEDFATYFCQQYRSYPLTFGQGTKLEIK
Turning to B4, the “inhibition … (in words)” value in data set [1] is “maintained selectivity and activity”.
